Data set [1] has as its target TBP (TATA-box binding protein) (Homo sapiens, UniProt P20226 1-339). Nature of the data set: femtosecond UV laser crosslinking, western blot; 2 mM MgCl2; 50 nJ, 1.25 J; NF1 binding buffer: 5 mM Tris-Cl pH 8.0, 90 mM NaCl (200 mM for EMSA and Fig. 2d), 0.5 mM EDTA, 5% glycerol, 0.55 mM beta-mercaptoethanol, 1 ug BSA; TBP: same + 2 mM MgCl2; 25 min, room temperature. To be noted: protein: commercial; label: 5'-biotin on both strands. (In general: In EMSA bound probe runs differently from free probe, usually more slowly.)

Data set [2] concerns the target T1, NF1 (nuclear factor 1/C) (Sus scrofa (porcine), UniProt P21999 1-506). Kind of data set: EMSA; 200 mM NaCl; protein:DNA 2.1:1 to 11:1; NF1 binding buffer: 5 mM Tris-Cl pH 8.0, 90 mM NaCl (200 mM for EMSA and Fig. 2d), 0.5 mM EDTA, 5% glycerol, 0.55 mM beta-mercaptoethanol, 1 ug BSA; TBP: same + 2 mM MgCl2; 25 min, room temperature. The conditions noted are these: protein: recombinant; tags: 6xHis; chain copies: 2; label: 5'-biotin on both strands.

The target in data set [3] is T1, NF1 (nuclear factor 1/C). Kind of data set: femtosecond UV laser crosslinking, western blot; 200 mM NaCl; 50 nJ pulses, total energy titrated; NF1 binding buffer: 5 mM Tris-Cl pH 8.0, 90 mM NaCl (200 mM for EMSA and Fig. 2d), 0.5 mM EDTA, 5% glycerol, 0.55 mM beta-mercaptoethanol, 1 ug BSA; TBP: same + 2 mM MgCl2; 25 min, room temperature. The conditions noted are these: protein: recombinant; tags: 6xHis; chain copies: 2; label: 5'-biotin on both strands.

Where a chain is given by its changes, count along the chain named.

T1 sequence (P21999 whole entry): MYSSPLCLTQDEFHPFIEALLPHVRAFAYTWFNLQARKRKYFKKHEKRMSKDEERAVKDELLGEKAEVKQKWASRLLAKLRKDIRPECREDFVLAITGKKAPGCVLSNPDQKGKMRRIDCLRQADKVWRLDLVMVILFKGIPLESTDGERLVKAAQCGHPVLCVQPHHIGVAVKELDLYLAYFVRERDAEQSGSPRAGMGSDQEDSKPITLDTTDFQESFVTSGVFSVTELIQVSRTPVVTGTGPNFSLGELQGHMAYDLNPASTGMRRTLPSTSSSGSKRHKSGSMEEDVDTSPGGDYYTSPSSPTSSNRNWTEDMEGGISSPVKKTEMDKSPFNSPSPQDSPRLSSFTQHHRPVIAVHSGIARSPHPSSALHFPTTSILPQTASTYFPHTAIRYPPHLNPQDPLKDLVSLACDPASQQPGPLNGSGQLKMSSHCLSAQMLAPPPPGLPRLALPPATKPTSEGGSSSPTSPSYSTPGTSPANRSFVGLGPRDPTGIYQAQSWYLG
Sequence of TBP (TATA-box binding protein) (P20226 whole entry): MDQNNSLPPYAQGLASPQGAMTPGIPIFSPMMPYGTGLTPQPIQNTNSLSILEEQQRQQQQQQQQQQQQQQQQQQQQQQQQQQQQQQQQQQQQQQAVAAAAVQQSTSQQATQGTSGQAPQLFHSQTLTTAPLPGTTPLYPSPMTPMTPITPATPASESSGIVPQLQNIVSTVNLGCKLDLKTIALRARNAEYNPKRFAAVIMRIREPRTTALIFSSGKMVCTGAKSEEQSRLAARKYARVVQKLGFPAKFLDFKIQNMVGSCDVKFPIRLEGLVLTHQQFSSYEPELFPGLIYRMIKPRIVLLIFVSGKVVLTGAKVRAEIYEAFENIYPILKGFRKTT

B1: TBP wild-type AdML TATAA oligo (dsDNA)
DNA 1: CCTGAAGGGGGGCTATAAAAGGGGGTGGGGGCGCG
DNA 2: CGCGCCCCCACCCCCTTTTATAGCCCCCCTTCAGG
B1: the binding result in data set [1] was “binds”.

B2: NF1 wild-type consensus oligo (dsDNA)
DNA 1: AATTCCTTTTTTTGGATTGAAGCCAATCGGATAATGAGG
DNA 2: CCTCATTATCCGATTGGCTTCAATCCAAAAAAAGGAATT
As for B2, the binding result in data set [2] is “binds”.

B3: NF1 wild-type oligo of Fig. 2d (dsDNA)
DNA 1: B2 DNA 1 with T3G, T13A, A31C, A33G
DNA 2: B2 DNA 2 with T7C, T9G, A27T, A37C
Consider B3, for which the binding result in data set [3] was “binds”.

These data come from paper PMC7295792, “Atomic-resolution mapping of transcription factor-DNA interactions by femtosecond laser crosslinking and mass spectrometry”.
